# B1: TMEM175 (parent)
# chain: QTSAFARQPRDELERVRVSCTIIF
# Variants of: B1
# Assay: protein stability index of a GFP-peptide fusion (GPS, HEK-293T) (PSI 1-6); higher = more stable
# Conditions: c terminus: a fixed tail appended
# 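Note: lentivirally expressed fusions sorted by FACS into six bins by GFP to DsRed ratio, PSI derived from sequencing read proportions per bin multiplied by bin number.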
row,Variant,protein stability index
1,QTSAFLRQPRDELERVRVSCTIIF [A6L],1.6
2,QTSAFMRQPRDELERVRVSCTIIF [A6M],1.74
3,QTSAFNRQPRDELERVRVSCTIIF [A6N],2.57
4,QTSAFRRQPRDELERVRVSCTIIF [A6R],1.84
5,QTSAFTRQPRDELERVRVSCTIIF [A6T],1.44
6,QTSAFVRQPRDELERVRVSCTIIF [A6V],2.9
7,QTSAFWRQPRDELERVRVSCTIIF [A6W],2.34
8,QTSAFYRQPRDELERVRVSCTIIF [A6Y],2.68
9,QTSAFAAQPRDELERVRVSCTIIF [R7A],2.46
10,QTSAFACQPRDELERVRVSCTIIF [R7C],3.01
11,QTSAFADQPRDELERVRVSCTIIF [R7D],2.01
12,QTSAFAEQPRDELERVRVSCTIIF [R7E],1.91
13,QTSAFAFQPRDELERVRVSCTIIF [R7F],2.53
14,QTSAFAIQPRDELERVRVSCTIIF [R7I],2.42
15,QTSAFAKQPRDELERVRVSCTIIF [R7K],2.08
16,QTSAFALQPRDELERVRVSCTIIF [R7L],2.48
17,QTSAFAMQPRDELERVRVSCTIIF [R7M],2.66
18,QTSAFAQQPRDELERVRVSCTIIF [R7Q],1.6
19,QTSAFATQPRDELERVRVSCTIIF [R7T],2.68
20,QTSAFAVQPRDELERVRVSCTIIF [R7V],1.33
21,QTSAFAYQPRDELERVRVSCTIIF [R7Y],1.58
22,QTSAFARAPRDELERVRVSCTIIF [Q8A],1.48
23,QTSAFARCPRDELERVRVSCTIIF [Q8C],3.32
24,QTSAFARDPRDELERVRVSCTIIF [Q8D],2.12

row,Variant,protein stability index
1,QTSAFARGPRDELERVRVSCTIIF [Q8G],4.14
2,QTSAFARHPRDELERVRVSCTIIF [Q8H],2.68
3,QTSAFARIPRDELERVRVSCTIIF [Q8I],2.01
4,QTSAFARLPRDELERVRVSCTIIF [Q8L],1.87
5,QTSAFARMPRDELERVRVSCTIIF [Q8M],3.58
6,QTSAFARPPRDELERVRVSCTIIF [Q8P],2.1
7,QTSAFARRPRDELERVRVSCTIIF [Q8R],3.17
8,QTSAFARTPRDELERVRVSCTIIF [Q8T],2
9,QTSAFARVPRDELERVRVSCTIIF [Q8V],1.56
10,QTSAFARWPRDELERVRVSCTIIF [Q8W],2.58
11,QTSAFARYPRDELERVRVSCTIIF [Q8Y],2.14
12,QTSAFARQDRDELERVRVSCTIIF [P9D],2.03
13,QTSAFARQERDELERVRVSCTIIF [P9E],3.41
14,QTSAFARQFRDELERVRVSCTIIF [P9F],2.38
15,QTSAFARQGRDELERVRVSCTIIF [P9G],2.81
16,QTSAFARQHRDELERVRVSCTIIF [P9H],2.88
17,QTSAFARQIRDELERVRVSCTIIF [P9I],2.44
18,QTSAFARQKRDELERVRVSCTIIF [P9K],1.03
19,QTSAFARQLRDELERVRVSCTIIF [P9L],2.43
20,QTSAFARQNRDELERVRVSCTIIF [P9N],2.67
21,QTSAFARQQRDELERVRVSCTIIF [P9Q],1.71
22,QTSAFARQRRDELERVRVSCTIIF [P9R],1.91
23,QTSAFARQSRDELERVRVSCTIIF [P9S],1.15
24,QTSAFARQTRDELERVRVSCTIIF [P9T],2.67

row,Variant,protein stability index
1,QTSAFARQVRDELERVRVSCTIIF [P9V],3.32
2,QTSAFARQWRDELERVRVSCTIIF [P9W],2.31
3,QTSAFARQYRDELERVRVSCTIIF [P9Y],2.83
4,QTSAFARQPADELERVRVSCTIIF [R10A],2.28
5,QTSAFARQPCDELERVRVSCTIIF [R10C],2.79
6,QTSAFARQPDDELERVRVSCTIIF [R10D],2.48
7,QTSAFARQPEDELERVRVSCTIIF [R10E],2.31
8,QTSAFARQPHDELERVRVSCTIIF [R10H],2.4
9,QTSAFARQPIDELERVRVSCTIIF [R10I],2.06
10,QTSAFARQPKDELERVRVSCTIIF [R10K],3.68
11,QTSAFARQPMDELERVRVSCTIIF [R10M],2.35
12,QTSAFARQPNDELERVRVSCTIIF [R10N],2.57
13,QTSAFARQPPDELERVRVSCTIIF [R10P],2.87
14,QTSAFARQPQDELERVRVSCTIIF [R10Q],3.27
15,QTSAFARQPSDELERVRVSCTIIF [R10S],2.4
16,QTSAFARQPTDELERVRVSCTIIF [R10T],2.48
17,QTSAFARQPVDELERVRVSCTIIF [R10V],2.03
18,QTSAFARQPWDELERVRVSCTIIF [R10W],3.68
19,QTSAFARQPYDELERVRVSCTIIF [R10Y],2.65
20,QTSAFARQPRAELERVRVSCTIIF [D11A],3.09
21,QTSAFARQPRCELERVRVSCTIIF [D11C],2.58
22,QTSAFARQPREELERVRVSCTIIF [D11E],2.73
23,QTSAFARQPRGELERVRVSCTIIF [D11G],3.67
24,QTSAFARQPRKELERVRVSCTIIF [D11K],3.33

row,Variant,protein stability index
1,QTSAFARQPRLELERVRVSCTIIF [D11L],3.31
2,QTSAFARQPRNELERVRVSCTIIF [D11N],3.52
3,QTSAFARQPRPELERVRVSCTIIF [D11P],2.6
4,QTSAFARQPRQELERVRVSCTIIF [D11Q],2.47
5,QTSAFARQPRSELERVRVSCTIIF [D11S],2.81
6,QTSAFARQPRTELERVRVSCTIIF [D11T],4.12
7,QTSAFARQPRVELERVRVSCTIIF [D11V],2.38
8,QTSAFARQPRYELERVRVSCTIIF [D11Y],3.09
9,QTSAFARQPRDALERVRVSCTIIF [E12A],3.94
10,QTSAFARQPRDCLERVRVSCTIIF [E12C],2.24
11,QTSAFARQPRDDLERVRVSCTIIF [E12D],2.16
12,QTSAFARQPRDFLERVRVSCTIIF [E12F],1.76
13,QTSAFARQPRDHLERVRVSCTIIF [E12H],2.73
14,QTSAFARQPRDILERVRVSCTIIF [E12I],2.56
15,QTSAFARQPRDKLERVRVSCTIIF [E12K],2.07
16,QTSAFARQPRDMLERVRVSCTIIF [E12M],1.89
17,QTSAFARQPRDQLERVRVSCTIIF [E12Q],1.9
18,QTSAFARQPRDSLERVRVSCTIIF [E12S],2.72
19,QTSAFARQPRDTLERVRVSCTIIF [E12T],2.95
20,QTSAFARQPRDWLERVRVSCTIIF [E12W],1.9
21,QTSAFARQPRDYLERVRVSCTIIF [E12Y],2.81
22,QTSAFARQPRDECERVRVSCTIIF [L13C],3.23
